T1: carcinoembryonic antigen, immobilized (UniProt P06731 35-685)
T1 construct: also called CEA; immobilized CEA
T1 sequence: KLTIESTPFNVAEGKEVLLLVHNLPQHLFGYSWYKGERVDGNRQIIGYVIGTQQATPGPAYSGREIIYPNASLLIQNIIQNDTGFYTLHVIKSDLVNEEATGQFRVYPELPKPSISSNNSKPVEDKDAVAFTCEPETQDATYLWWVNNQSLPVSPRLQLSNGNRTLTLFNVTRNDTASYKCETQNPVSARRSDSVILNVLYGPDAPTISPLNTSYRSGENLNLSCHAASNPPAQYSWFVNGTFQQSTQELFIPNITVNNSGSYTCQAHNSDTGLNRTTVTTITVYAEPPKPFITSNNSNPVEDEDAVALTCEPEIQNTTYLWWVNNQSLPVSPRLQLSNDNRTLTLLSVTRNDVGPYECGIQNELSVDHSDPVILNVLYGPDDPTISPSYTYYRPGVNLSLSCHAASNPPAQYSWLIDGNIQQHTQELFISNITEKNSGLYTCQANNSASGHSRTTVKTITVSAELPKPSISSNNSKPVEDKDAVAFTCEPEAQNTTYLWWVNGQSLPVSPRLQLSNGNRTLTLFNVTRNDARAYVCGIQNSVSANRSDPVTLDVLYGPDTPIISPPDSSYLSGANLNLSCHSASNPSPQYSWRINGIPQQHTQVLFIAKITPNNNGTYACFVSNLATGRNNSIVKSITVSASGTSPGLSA

T2: carcinoembryonic antigen on LS-174T cells (human, UniProt P06731 35-702)
T2 construct: whole, on cells; also called CEA on LS174T cells; CEA-expressing LS-174T cells
T2 sequence: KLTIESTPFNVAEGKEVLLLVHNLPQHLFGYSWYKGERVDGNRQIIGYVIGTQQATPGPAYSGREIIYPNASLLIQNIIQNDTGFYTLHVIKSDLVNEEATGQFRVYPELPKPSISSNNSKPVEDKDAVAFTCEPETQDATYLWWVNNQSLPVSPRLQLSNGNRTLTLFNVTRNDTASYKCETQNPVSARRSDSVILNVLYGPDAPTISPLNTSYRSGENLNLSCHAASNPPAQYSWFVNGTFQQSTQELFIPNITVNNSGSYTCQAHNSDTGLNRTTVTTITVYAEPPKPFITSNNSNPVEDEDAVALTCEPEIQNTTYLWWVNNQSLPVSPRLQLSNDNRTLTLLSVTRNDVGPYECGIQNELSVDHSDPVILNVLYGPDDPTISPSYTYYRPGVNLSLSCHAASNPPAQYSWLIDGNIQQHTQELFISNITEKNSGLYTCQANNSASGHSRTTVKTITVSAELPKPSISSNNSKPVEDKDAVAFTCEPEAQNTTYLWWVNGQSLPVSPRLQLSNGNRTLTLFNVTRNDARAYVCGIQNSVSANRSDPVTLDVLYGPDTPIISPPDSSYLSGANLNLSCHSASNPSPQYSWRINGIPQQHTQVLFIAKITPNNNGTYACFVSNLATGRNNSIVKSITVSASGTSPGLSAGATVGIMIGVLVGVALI


Columns and labels:
[1] = molecular target: T3, αvβ6 integrin, immobilized (UniProt P06756 31-992; P18564 22-709); test: ELISA on immobilized αvβ6, rabbit anti-MFE detection
T3 construct: also called immobilized αvβ6; rsαvβ6

[2] = molecular target: T4, αvβ8 integrin on A375Ppuro cells (UniProt P06756 31-1048; P26012 43-769); test: flow cytometry on A375Ppuro cells, which express αvβ8
T4 construct: whole, on cells
T4 sequence (P06756 31-1048, chain 1 of 2): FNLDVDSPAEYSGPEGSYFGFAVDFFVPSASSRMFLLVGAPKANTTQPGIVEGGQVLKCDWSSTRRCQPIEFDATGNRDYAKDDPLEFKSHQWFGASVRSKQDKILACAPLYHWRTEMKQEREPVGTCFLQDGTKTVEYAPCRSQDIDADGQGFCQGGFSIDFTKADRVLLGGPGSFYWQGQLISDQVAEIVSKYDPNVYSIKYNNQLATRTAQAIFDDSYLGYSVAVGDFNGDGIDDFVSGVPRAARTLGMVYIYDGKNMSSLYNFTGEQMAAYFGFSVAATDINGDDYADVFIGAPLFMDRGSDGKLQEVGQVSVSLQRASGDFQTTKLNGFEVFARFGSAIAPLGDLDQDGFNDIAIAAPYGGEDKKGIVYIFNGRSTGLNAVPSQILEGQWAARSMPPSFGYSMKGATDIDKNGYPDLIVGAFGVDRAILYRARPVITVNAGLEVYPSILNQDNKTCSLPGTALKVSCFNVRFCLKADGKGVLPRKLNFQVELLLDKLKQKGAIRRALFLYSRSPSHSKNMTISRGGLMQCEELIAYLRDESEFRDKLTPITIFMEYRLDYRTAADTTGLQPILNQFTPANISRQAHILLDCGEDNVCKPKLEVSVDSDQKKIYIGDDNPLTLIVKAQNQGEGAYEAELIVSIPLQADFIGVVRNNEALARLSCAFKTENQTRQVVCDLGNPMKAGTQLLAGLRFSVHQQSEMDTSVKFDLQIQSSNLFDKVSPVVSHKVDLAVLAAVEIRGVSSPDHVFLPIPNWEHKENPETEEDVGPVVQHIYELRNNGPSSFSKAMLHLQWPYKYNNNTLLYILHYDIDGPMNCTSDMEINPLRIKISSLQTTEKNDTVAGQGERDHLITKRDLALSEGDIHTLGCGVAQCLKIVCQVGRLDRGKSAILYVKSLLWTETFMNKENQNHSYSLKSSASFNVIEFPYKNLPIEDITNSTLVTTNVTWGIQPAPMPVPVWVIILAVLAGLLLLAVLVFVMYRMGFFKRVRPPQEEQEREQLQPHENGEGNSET
T4 sequence (P26012 43-769, chain 2 of 2): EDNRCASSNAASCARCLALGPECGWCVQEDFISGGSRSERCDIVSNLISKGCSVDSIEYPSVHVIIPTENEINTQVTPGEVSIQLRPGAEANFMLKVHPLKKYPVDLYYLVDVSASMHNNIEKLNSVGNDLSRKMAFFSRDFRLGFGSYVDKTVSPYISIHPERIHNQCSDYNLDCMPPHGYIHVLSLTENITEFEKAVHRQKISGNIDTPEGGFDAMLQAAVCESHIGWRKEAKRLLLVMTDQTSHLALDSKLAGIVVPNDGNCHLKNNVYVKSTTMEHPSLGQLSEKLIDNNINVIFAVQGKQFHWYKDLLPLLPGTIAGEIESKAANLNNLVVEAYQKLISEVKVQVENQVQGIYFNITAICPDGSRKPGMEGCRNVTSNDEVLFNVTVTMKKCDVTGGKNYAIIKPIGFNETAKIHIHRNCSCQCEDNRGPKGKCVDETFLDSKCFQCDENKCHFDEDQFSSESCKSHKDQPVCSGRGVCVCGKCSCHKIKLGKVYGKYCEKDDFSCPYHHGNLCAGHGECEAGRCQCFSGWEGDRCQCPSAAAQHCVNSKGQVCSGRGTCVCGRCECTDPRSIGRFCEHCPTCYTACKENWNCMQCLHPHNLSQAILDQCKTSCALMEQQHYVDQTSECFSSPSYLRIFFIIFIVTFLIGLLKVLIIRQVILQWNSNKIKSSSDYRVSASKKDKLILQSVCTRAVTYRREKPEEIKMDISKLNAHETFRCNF

[3] = molecular target: T5, αvβ3 integrin, immobilized (UniProt P06756 31-1048; P05106 27-788); test: ELISA on immobilized αvβ3, rabbit anti-MFE detection
T5 construct: also called immobilized αvβ3

[4] = molecular target: T1, carcinoembryonic antigen, immobilized; test: ELISA on immobilized CEA, rabbit anti-MFE detection, three concentrations
[5] = molecular target: T6, αvβ3 integrin on A375Ppuro cells (UniProt P06756 31-1048; P05106 27-788); test: flow cytometry on A375Ppuro cells, which express αvβ3
T6 construct: whole, on cells

[6] = molecular target: T7, αvβ5 integrin on A375Ppuro cells (UniProt P06756 31-1048; P18084 24-799); test: flow cytometry on A375Ppuro cells, which express αvβ5
T7 construct: whole, on cells
T7 sequence (P06756 31-1048, chain 1 of 2): as the sequence (P06756 31-1048, chain 1 of 2) above
T7 sequence (P18084 24-799, chain 2 of 2): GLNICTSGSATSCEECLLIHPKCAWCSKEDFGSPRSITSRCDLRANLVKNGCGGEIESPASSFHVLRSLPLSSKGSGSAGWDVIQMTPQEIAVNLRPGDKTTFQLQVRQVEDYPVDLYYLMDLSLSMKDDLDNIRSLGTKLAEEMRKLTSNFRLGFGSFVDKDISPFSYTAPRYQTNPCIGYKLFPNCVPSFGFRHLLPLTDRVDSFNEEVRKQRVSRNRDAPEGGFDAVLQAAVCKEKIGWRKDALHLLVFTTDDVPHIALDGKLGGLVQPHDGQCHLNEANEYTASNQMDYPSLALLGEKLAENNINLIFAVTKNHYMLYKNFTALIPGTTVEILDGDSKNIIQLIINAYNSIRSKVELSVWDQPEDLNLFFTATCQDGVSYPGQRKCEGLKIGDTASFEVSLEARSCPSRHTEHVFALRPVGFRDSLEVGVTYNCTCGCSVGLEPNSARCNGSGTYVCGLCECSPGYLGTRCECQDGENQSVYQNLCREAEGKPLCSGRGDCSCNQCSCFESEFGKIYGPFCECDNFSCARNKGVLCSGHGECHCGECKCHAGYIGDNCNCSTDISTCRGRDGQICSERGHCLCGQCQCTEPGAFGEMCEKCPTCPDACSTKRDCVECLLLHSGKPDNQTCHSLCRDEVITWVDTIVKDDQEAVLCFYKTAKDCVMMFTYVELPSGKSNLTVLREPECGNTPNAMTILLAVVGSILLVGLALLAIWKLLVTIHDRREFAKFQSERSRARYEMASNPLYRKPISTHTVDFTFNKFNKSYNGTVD

[7] = molecular target: T2, carcinoembryonic antigen on LS-174T …; test: flow cytometry on LS174T cells
[8] = molecular target: T8, α5β1 integrin on A375Ppuro cells (UniProt P08648 42-1049; P05556 21-798); test: flow cytometry on A375Ppuro cells, which express α5β1
T8 construct: whole, on cells
T8 sequence (P08648 42-1049, chain 1 of 2): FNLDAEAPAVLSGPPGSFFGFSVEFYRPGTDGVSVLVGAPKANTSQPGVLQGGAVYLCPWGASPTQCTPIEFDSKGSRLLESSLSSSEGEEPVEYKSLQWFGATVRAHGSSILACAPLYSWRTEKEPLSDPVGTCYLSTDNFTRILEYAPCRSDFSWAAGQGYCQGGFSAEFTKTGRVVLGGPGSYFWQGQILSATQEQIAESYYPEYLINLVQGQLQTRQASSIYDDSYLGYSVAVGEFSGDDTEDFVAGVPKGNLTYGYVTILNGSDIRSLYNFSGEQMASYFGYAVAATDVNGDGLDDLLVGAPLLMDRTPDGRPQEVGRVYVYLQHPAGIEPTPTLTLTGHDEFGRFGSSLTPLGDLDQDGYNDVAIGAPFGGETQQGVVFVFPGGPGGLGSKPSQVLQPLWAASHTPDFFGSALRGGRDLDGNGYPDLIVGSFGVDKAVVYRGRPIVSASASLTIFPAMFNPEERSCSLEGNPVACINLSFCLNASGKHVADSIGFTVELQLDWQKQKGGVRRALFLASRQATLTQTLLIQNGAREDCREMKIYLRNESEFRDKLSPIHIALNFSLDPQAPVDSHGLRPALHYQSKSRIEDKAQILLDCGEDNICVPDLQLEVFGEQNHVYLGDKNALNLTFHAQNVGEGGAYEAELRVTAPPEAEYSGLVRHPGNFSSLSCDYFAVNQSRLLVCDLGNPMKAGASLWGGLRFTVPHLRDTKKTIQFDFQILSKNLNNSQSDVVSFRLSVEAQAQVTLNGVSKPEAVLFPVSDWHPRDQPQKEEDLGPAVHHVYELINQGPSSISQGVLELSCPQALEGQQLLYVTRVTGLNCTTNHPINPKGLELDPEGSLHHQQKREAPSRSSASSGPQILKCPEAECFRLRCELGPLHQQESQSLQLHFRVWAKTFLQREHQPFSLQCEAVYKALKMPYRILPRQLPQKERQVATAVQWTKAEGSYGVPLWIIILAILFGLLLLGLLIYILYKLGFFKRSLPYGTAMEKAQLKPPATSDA
T8 sequence (P05556 21-798, chain 2 of 2): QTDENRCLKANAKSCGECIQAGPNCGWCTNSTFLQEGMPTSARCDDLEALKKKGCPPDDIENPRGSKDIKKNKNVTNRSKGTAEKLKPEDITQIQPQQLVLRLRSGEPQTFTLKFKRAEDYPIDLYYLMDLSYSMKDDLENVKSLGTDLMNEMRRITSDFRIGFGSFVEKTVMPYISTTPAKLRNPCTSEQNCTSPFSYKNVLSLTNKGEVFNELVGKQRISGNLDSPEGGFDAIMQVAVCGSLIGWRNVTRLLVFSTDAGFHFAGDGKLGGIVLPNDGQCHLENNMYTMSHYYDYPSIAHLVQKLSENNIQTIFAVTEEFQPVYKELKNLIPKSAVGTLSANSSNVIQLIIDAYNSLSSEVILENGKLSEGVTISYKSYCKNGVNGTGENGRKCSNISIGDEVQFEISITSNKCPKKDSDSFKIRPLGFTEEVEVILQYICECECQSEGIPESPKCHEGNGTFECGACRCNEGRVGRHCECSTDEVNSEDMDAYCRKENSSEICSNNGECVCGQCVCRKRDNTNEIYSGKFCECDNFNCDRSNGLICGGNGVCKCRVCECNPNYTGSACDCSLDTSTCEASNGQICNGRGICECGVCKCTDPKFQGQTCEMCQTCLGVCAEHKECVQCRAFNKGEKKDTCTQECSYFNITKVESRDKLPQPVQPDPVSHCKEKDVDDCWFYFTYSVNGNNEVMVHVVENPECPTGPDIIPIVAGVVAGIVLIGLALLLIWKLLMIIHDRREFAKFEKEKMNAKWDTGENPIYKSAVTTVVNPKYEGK

Binder | binding result [1] | binding result [2] | binding result [3] | binding result [4] | binding result [5] | binding result [6] | binding result [7] | binding result [8]
MFE-23 scFv (scFv, also called parent MFE) scFv: QVKLQQSGAELVRSGTSVKLSCTASGFNIKDSYMHWLRQGPEQGLEWIGWIDPENGDTEYAPKFQGKATFTTDTSSNTAYLQLSSLTSEDTAVYYCNEGTPTGPYYFDYWGQGTTVTVSSGGGGSGGGGSGGGGSENVLTQSPAIMSASPGEKVTITCSASSSVSYMHWFQQKPGTSPKLWIYSTSNLASGVPARFSGSGSGTSYSLTISRMEAEDAATYYCQQRSSYPLTFGAGTKLELKRAAAHHHHHH | no binding (tested: 10 µg/ml) | – | – | – | – | – | – | –
NFEVP1 (scFv) scFv: QVKLQQSGAELVRSGTSVKLSCTASGFNIKDSYMHWLRQGPEQGLEWIGWIDPENGDTEYAPKFQGKATFTTDTSSNTAYLQLSSLTSEDTAVYYCNEGTPTAVPNLRGDLQVLAQKVAGPYPFDYWGQGTTVTVSSGGGGSGGGGSGGGGSENVLTQSPAIMSASPGEKVTITCSASSSVSYMHWFQQKPGTSPKLWIYSTSNLASGVPARFSGSGSGTSYSLTISRMEAEDAATYYCQQRSSYPLTFGAGTKLELKRAAAHHHHHH | – | no binding | no binding (tested: 20 µg/ml) | no binding | no binding | no binding | no binding (tested: 50 µg/ml) | no binding

Source: patent publication US20150291695A1 (CANCER RESEARCH TECHNOLOGY, published 2015)
